Test results taken from patent US20220105194A1, “CONJUGATE COMPRISING LIGAND, SPACER, PEPTIDE LINKER, AND BIOMOLECULE” (ASTELLAS PHARMA INC., priority 2019, published 2022).
Where two headings read alike, the source gives them in different places.

Assays:
[1] = target: human cancer-specific MUC1; assay: Example 6-2: ELISA binding activity of anti-human MUC1 antibody Fab^5 fragment conjugates; details: immobilized human cancer-specific MUC1 peptide, run in duplicate, read-out: EC50
Method: Each anti-human MUC1 antibody Fab^5 fragment conjugate prepared by the method of Example 5 was subjected to ELISA to evaluate the binding activity thereof to human cancer-specific MUC1. In the present test, 20×PBS/Tween 20 Buffer (Thermo Fisher Scientific Inc., 28352) diluted 20-fold with distilled water was used as a wash liquid. In addition, for bovine serum albumin (BSA) used in the present test, 30% Bovine Serum Albumin solution (Sigma-Aldrich, Inc., A9576-50ML) was added in an appropriate proportion for use. A human cancer-specific MUC1 peptide (PTL 1) at 0.5 μmol/L was added to a Nunc MaxiSorp White 384 plate (Nunc, 460372) at 30 μL per well, and the plate was incubated overnight at 4° C. for immobilization. The MUC1 peptide was removed by reverse centrifugation, and then blocking was carried out by adding a PBS/Tween 20 buffer containing 5.0% BSA. […] The substrate was incubated at room temperature for 15 minutes, and then a signal value thereof was measured using an Envision counter (PerkinElmer, Inc.).
The test for each antibody was carried out in duplicate, and the EC50 value was calculated using a 4-parameter logistic curve model.

[2] = design: species or system mice (BALB/c or BALB/c nu/nu); details: mouse, in vivo
Method: (§1) A Gd-labeled conjugate of the conjugate containing a peptide linker produced in one of the above Examples was administered from the tail vein of mice (BALB/c or BALB/c nu/nu) so that the protein mass was 0.02 mg (100 μL) per animal. After about 24 hours, the mice were sacrificed and the kidneys were removed, and the amount of Gd in the kidneys was measured using ICP-MS. The present test was carried out in 3 cases in each group, the mean value of the 3 cases was calculated, and the amount of Gd contained per kidney after administration was shown as a percentage (% of dose/tissue) of the total amount of Gd administered.
Based on the amount of Gd contained in the kidneys of the control conjugate, the proportion of decrease in the amount of Gd contained in the kidneys of each of the conjugates having a peptide linker was determined.

[3] = target: human cancer-specific MUC1 peptide (PTL 1) (human); assay: ELISA, immobilised MUC1 peptide (Example 6-1)
Chain of human cancer-specific MUC1 peptide (PTL 1) (human) (main, as listed by the source): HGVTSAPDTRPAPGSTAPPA

[4] = target: human cancer-specific MUC1 peptide (PTL 1) (human); assay: ELISA, immobilised MUC1 peptide (Example 6-2)
[5] = Example 4-1: kidney accumulation evaluation test of Gd-labeled conjugates (normal mice); details: about 24 hours, relative to control conjugate Ex-No 47
Method: as §1
(§2) Based on the percentage of the control conjugate (% of dose/tissue), the proportion of decrease in the amount of Gd contained in the kidneys of each of the conjugates having a peptide linker was determined and shown in Table 28.

[6] = design: species or system mice (BALB/c nu/nu); details: mouse, in vivo
Method: (§3) A Gd-labeled conjugate of the conjugate containing a peptide linker produced in one of the above Examples was administered from the tail vein of tumor-bearing mice so that the protein mass was 0.02 mg (100 μL) per animal. As the tumor-bearing mice used in the present Example, mice (BALB/c nu/nu) that were in a tumor-bearing state brought about by transplanting human colorectal cancer cell line LS174T cells (ATCC(registered trademark); CL-188) at 2.0 to 5.0×10^6 cells/mouse subcutaneously on the back before administration of the sample were used. 24 hours after administration of the sample, the mice were sacrificed, the kidneys and the tumor were removed, and the amounts of Gd in the kidneys and in the tumor were measured using ICP-MS. The present test was carried out in 3 cases in each group, and the mean value of the 3 cases was calculated. The amount of Gd contained per kidney after administration was shown as a percentage of the amount of Gd administered (% of dose/tissue), and the amount of Gd contained per g of tumor tissue was shown as a percentage of the total amount of Gd administered (% of dose/g).

[7] = tested on: human colorectal cancer cell line LS174T cells; assay: Example 4-4: amount of tumor accumulation of Gd-labeled conjugates (tumor-bearing mice); details: tail vein, 0.02 mg protein per animal, 24 hours, ICP-MS, mean of 3 cases
Method: as §3

[8] = design: species or system mice (BALB/c or BALB/c nu/nu); details: mouse, in vivo; remark: listed apart in the source
Method: as §1

[9] = mouse, in vivo
Method: as §1, §2

[10] = mouse, in vivo; remark: listed apart in the source
Method: as §1

B1: [Gd/DOTA-NH—CH2-(1,4-Ph)-NH—C(═O)-Met-Ile-NH—(CH2)2—Z1(#S)]p-Fab^5 (conjugate)
heavy: QVQLVQSGAEVKKPGASVKVSCKASGYTFTNYGLSWVRQAPGQGLEWMGENHPGSGIIYHNEKFRGRVTLTADRSTSTAYMELSSLRSEDTAVYYCARSSGTRGFDYWGQGTLVTVSSASTKGPSVFPLAPSSKSTSGGTAALGCLVKDYFPEPVTVSWNSGALTSGVHTFPAVLQSSGLYSLSSVVTVPSSSLGTQTYICNVNHKPSNTKVDKKVEPKSCD
light: DVVMTQTPLSLSVTPGQPASISCRSSQSIVHSNGNTYLEWYLQKPGQSPQLLIYRVSNRFSGVPDRFSGSGSGTDFTLKISRVEAEDVGVYYCFQGSHGPWTFGQGTKLEIKRTVAAPSVFIFPPSDEQLKSGTASVVCLLNNFYPREAKVQWKVDNALQSGNSQESVTEQDSKDSTYSLSSTLTLSKADYEKHKVYACEVTHQGLSSPVTKSFNRGEC
**Q.** Which EC50 [1] does the source give for B1 here?
**A.** 0.09 nM

B2: [Gd/DOTA-NH—CH2-(1,4-Ph)-NH—C(═O)-Met-Ile-NH—(CH2)2-(A-4 and/or A-5)]p-Fab^5 (conjugate)
heavy: B1 heavy
light: B1 light
**Q.** Which “Renal residual amount (normal mice), % of dose/tissue” value [2] does the source give for B2 here?
**A.** 2.30 % of dose/tissue

B3: [Gd/DOTA-NH—CH2-(1,4-Ph)-NH—C(═O)-Met-Ile-NH—(CH2)2-(A-3)]p-Fab^5 (conjugate)
heavy: B1 heavy
light: B1 light
**Q.** For B3, which “Renal residual amount (normal mice), % of dose/tissue” value [2] is on record?
**A.** 2.80 % of dose/tissue

B4: ([Gd/DOTA-NH-CH2-(1,4-Ph)-NH-C(═O)-Met-Ile-NH-(CH2)2-(A-4 and/or A-5)]p-Fab^5) (Fab, V domains shown)
VH: QVQLVQSGAEVKKPGASVKVSCKASGYTFTNYGLSWVRQAPGQGLEWMGENHPGSGIIYHNEKFRGRVTLTADRSTSTAYMELSSLRSEDTAVYYCARSSGTRGFDYWGQGTLVTVSS
VL: DVVMTQTPLSLSVTPGQPASISCRSSQSIVHSNGNTYLEWYLQKPGQSPQLLIYRVSNRFSGVPDRFSGSGSGTDFTLKISRVEAEDVGVYYCFQGSHGPWTFGQGTKLEIKR
modifications: labeling portion on p amino groups of the Fab; chain and sites not stated
**Q.** For B4, which EC50 [3] is on record?
**A.** 0.08 nM

B5: ([Gd/DOTA-[2,5-(1,2,3,4-tetrahydroisoquinoline)]-C(═O)-Met-Gly-Lys*-C(═S)-NH-(1,4-Ph)-NH-C(═S)]p-Fab^5) (Fab, V domains shown)
VH: B4 VH
VL: B4 VL
modifications: labeling portion on p amino groups of the Fab; chain and sites not stated
**Q.** With B5 as the molecule, how does the EC50 [4] read?
**A.** 0.19 nM

B6: Ex-No 108, conjugate with Fab^5 that does not contain a peptide linker (structure only as drawing CHEM-US-00162) (Fab, V domains shown)
VH: B4 VH
VL: B4 VL
modifications: labeling portion on p amino groups of the Fab; chain and sites not stated
**Q.** With B6 as the molecule, how does the EC50 [4] read?
**A.** 0.07 nM

**Q.** And the EC50 [3]?
**A.** 0.07 nM

B7: ([Gd/DOTA-NH-CH2-(1,4-Ph)-NH-C(═O)-Met-Ile-NH-(CH2)2-Z1(#N)]p-Fab^5) (Fab, V domains shown)
VH: B4 VH
VL: B4 VL
modifications: labeling portion on p amino groups of the Fab; chain and sites not stated
**Q.** For B7, which EC50 [4] is on record?
**A.** 0.08 nM

B8: ([Gd/DOTA-NH-CH2-(1,4-Ph)-NH-C(═O)-Met-Ile-NH-(CH2)2-(A-3)]p-Fab^5) (Fab, V domains shown)
VH: B4 VH
VL: B4 VL
modifications: labeling portion on p amino groups of the Fab; chain and sites not stated
**Q.** With B8 as the molecule, how does the EC50 [3] read?
**A.** 0.15 nM

B9: ([Gd/DOTA-NH-CH2-(1,4-Ph)-NH-C(═O)-Met-Ile-NH-(CH2)2-Z1(#S)]p-Fab^5) (Fab, V domains shown)
VH: B4 VH
VL: B4 VL
modifications: labeling portion on p amino groups of the Fab; chain and sites not stated
**Q.** For B9, which EC50 [4] is on record?
**A.** 0.09 nM

B10: [Gd/DOTA-[2,5-(1,2,3,4-tetrahydroisoquinoline)]-C(═O)-Met-Gly-Lys*-Z2(#N)]p-Fab^2 (conjugate)
heavy: EVQLVESGGGLVQPGGSLRLSCAASGFNIRDTYMHWVRQAPGKGLEWVARIDPANGNSRYVPKFQGRFTISADTSRNTAYLQMNSLRAEDTAVYYCAPFGYYVSDYAMAYWGQGTLVTVSSASTKGPSVFPLAPSSKSTSGGTAALGCLVKDYFPEPVTVSWNSGALTSGVHTFPAVLQSSGLYSLSSVVTVPSSSLGTQTYICNVNHKPSNTKVDKKVEPKSCD
light: DIQLTQSPSSLSASVGDRVTITCRAGESVDIFGVGFLHWYQQKPGKAPKLLIYRASNLESGIPSRFSGSGSRTDFTLTISSLQPEDFATYYCQQTNEDPYTFGQGTKVEIKRTVAAPSVFIFPPSDEQLKSGTASVVCLLNNFYPREAKVQWKVDNALQSGNSQESVTEQDSKDSTYSLSSTLTLSKADYEKHKVYACEVTHQGLSSPVTKSFNRGEC
**Q.** Which “Proportion of decrease (%) in the amount of Gd contained in the kidneys” value (“Proportion of decrease (%) … in the kidneys” below) [5] does the source give for B10 here?
**A.** 82.9%

**Q.** And the “Renal residual amount (cancer-bearing mice), % of dose/tissue” value [6]?
**A.** 7.30 % of dose/tissue

**Q.** And the “Renal residual amount (cancer-bearing mice), Proportion of decrease (%)” value [6]?
**A.** 71.74%

**Q.** And the “Amount of tumor accumulation (tumor-bearing mice), % of dose/g” value [7]?
**A.** 4.53 % of dose/g

B11: [Gd/DOTA-NH—CH2-(1,3-Ph)-C(═O)-Asp-Gly-Lys*-Z2(#N)]p-Fab^2 (conjugate)
heavy: B10 heavy
light: B10 light
**Q.** For B11, which “Renal residual amount (normal mice), % of dose/tissue” value [8] is on record?
**A.** 21.67 % of dose/tissue

**Q.** What about the “Renal residual amount (normal mice), Proportion of decrease (%)” value [8] of the same molecule?
**A.** 26.12%

**Q.** And the “Proportion of decrease (%) … in the kidneys” value [9]?
**A.** 52.2%

B12: [Gd/4arm-DOTA-CH2-(1,4-Ph)-NH—C(═S)—NH—CH2-(1,3-Ph)-C(═O)-Met-Gly-Lys*-Z2(#S)]p-Fab^2 (conjugate)
heavy: B10 heavy
light: B10 light
**Q.** For B12, which “Proportion of decrease (%) … in the kidneys” value [5] is on record?
**A.** 72.9%

B13: [Gd/DOTA]p-Fab^2 (conjugate)
heavy: B10 heavy
light: B10 light
**Q.** What does the source list for B13?
**A.** Renal residual amount (normal mice), % of dose/tissue [10]: 31.30 % of dose/tissue; Renal residual amount (% of dose/tissue), Mean [8]: 29.33 % of dose/tissue; Geometric mean (% of dose/tissue) [9]: 31.0 % of dose/tissue; Renal residual amount (% of dose/tissue), Mean [6]: 25.83 % of dose/tissue

B14: [Gd/4arm-DOTA-CH2-(1,4-Ph)-NH—C(═S)-Gly-Phe-Lys*-Z2(#N)]p-Fab^2 (conjugate)
heavy: B10 heavy
light: B10 light
**Q.** With B14 as the molecule, how does the “Proportion of decrease (%) … in the kidneys” value [5] read?
**A.** 68.0%
